Experimental data from patent US20140105889A1 (published 2014).

T1: human FcγRIIa type H (human, UniProt P12318 36-217)
T1 construct: also called FcγRIIaH; FcγRIIa(H)
T1 sequence: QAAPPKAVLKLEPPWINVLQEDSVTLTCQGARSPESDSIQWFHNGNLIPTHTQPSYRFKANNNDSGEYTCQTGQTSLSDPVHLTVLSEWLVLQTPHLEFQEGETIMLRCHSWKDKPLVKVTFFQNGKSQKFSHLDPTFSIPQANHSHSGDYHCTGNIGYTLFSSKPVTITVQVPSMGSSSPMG

T2: human FcγRIIb (human, UniProt P31994 43-217, limits assumed)
T2 construct: also called FcγIIB; hFcgRIIb
T2 sequence: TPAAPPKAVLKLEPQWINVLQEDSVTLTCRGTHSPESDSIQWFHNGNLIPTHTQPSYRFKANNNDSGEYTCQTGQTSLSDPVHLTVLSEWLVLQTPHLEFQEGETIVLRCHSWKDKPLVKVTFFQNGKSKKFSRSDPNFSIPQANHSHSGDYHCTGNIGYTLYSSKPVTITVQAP

T3: FcγRIIa type H (human, UniProt P12318 36-217)
T3 construct: also called FcγRIIaH; FcγRIIa(H)
T3 sequence: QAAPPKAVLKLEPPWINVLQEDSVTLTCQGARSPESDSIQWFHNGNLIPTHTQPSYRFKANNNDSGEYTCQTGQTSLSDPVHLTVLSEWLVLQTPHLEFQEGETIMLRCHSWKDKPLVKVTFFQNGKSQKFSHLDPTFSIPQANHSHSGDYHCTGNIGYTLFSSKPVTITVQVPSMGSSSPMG

T4: FcγRIIb (human, UniProt P31994 43-217, limits assumed)
T4 construct: also called FcγIIB; FcgRIIb
T4 sequence: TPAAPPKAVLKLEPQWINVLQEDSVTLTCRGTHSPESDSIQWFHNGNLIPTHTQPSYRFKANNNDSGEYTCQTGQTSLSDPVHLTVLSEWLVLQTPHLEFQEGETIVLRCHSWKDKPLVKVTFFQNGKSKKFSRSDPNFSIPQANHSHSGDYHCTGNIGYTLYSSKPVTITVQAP


How the values were obtained:
[1] = target: T1, human FcγRIIa type H; experiment: SPR (Biacore), captured antibody, FcγR as analyte, 25 C
Source text: (§1) Furthermore, KD(IIaR)/KD(IIb) and KD(IIaH)/KD(IIb) in the table respectively represent the value obtained by dividing the KD value of each variant for FcγRIIaR by the KD value of each variant for FcγRIIb, and the value obtained by dividing the KD value of each variant for FcγRIIaH by the KD value of each variant for FcγRIIb.

[2] = target: T2, human FcγRIIb; experiment: SPR KD for FcγRIIb of parent IL6R-B3/IL6R-L divided by that of this variant
Source text: as §1

[3] = target: T2, human FcγRIIb; experiment: ratio of this variant's SPR KD for FcγRIIaR to its KD for FcγRIIb
Source text: as §1

[4] = target: T2, human FcγRIIb; experiment: ratio of this variant's SPR KD for FcγRIIaH to its KD for FcγRIIb
Source text: as §1

[5] = target: T3, FcγRIIa type H; experiment: SPR (Biacore), captured antibody, FcγR as analyte, method of Example 14
[6] = target: T4, FcγRIIb; experiment: ratio of SPR KD values of this variant (FcγRIIaH over FcγRIIb)
Source text: as §1

[7] = target: T4, FcγRIIb; experiment: ratio of SPR KD values of this variant (FcγRIIaR over FcγRIIb)
Source text: as §1

[8] = target: T4, FcγRIIb; experiment: ratio of SPR KD values; parent polypeptide is IL6R-B3/IL6R-L
Source text: as §1

[9] = target: T2, human FcγRIIb; experiment: SPR (Biacore), captured antibody, FcγR as analyte, 25 C
Source text: as §1

[10] = target: T5, FcγRIa (human, UniProt P12314 16-292, limits assumed); experiment: SPR (Biacore), captured antibody, FcγR as analyte, method of Example 14
T5 construct: also called CD64; FcgRIa

[11] = target: T6, FcγRIIIa type V (human, UniProt P08637 17-208, limits assumed); experiment: as above
T6 construct: also called FcγRIIIaV; FcγRIIIa(V)

[12] = target: T4, FcγRIIb; experiment: as above
[13] = target: T7, human FcγRIIIa(F) (human, UniProt P08637 17-208, limits assumed); experiment: SPR (Biacore), captured antibody, FcgR as analyte, HBS-EP+, 25 C; bound amount corrected for captured antibody, relative to GpH7-G1d/GpL16-k0
T7 construct: also called hFcgRIIIa(F); allotype F158
T7 sequence (P08637 other isoform, or with tags, fused parts or gaps limits assumed): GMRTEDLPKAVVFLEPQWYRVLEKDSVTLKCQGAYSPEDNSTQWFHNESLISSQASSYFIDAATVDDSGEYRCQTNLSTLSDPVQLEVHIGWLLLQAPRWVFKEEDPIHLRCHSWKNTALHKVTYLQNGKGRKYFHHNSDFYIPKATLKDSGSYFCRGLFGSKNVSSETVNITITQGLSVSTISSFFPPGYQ
Procedure: Interaction between each modified antibody and Fcγ receptor prepared in the manner described above was analyzed using the Biacore T100 (GE Healthcare), Biacore T200 (GE Healthcare), Biacore A100 or Biacore 4000. HBS-EP+ (GE Healthcare) was used for the running buffer, and measurements were carried out at 25° C. The chips used were chips in which antigen peptides, Protein A (Thermo Scientific), Protein A/G (Thermo Scientific) or Protein L (ACTIGEN or BioVision) were immobilized on the Series S Sensor Chip CM5 (GE Healthcare) or Series S Sensor Chip CM4 (GE Healthcare) by amine coupling, or chips in which preliminarily biotinylated antigen peptides were allowed to interact and then immobilized on the Series S Sensor Chip SA (certified) (GE Healthcare). The target antibodies were captured on these sensor chips, Fcγ receptor diluted with the running buffer was allowed to interact, followed by measurement of the amount of bound antibody. The amounts bound were compared between antibodies. However, since the amount of Fcγ receptor bound depends on the amount of captured antibody, the values used for comparison were first corrected by dividing the amount of Fcγ receptor bound by the captured amount of each antibody. Through reaction with 10 mM glycine-HCl at pH 1.5, the sensor chips were regenerated by washing off antibody captured on the sensor chips and used repeatedly.

T6 sequence (P08637 other isoform, or with tags, fused parts or gaps limits assumed): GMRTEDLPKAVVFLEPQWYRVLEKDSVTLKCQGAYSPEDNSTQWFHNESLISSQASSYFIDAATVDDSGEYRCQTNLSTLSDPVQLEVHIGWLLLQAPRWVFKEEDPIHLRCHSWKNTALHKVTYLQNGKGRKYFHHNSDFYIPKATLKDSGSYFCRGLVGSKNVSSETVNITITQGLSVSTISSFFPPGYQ
T5 sequence (P12314 16-292 limits assumed): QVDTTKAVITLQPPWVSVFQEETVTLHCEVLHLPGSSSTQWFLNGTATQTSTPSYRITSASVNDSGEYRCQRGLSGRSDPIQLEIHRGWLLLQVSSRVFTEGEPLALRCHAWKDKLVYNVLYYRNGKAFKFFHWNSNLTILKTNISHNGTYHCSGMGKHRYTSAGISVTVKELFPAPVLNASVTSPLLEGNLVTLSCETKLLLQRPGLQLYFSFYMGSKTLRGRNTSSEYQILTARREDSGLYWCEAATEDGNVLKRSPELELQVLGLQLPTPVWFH

Binder	KD(IIb) of the parent polypeptide/KD(IIb) of the altered polypeptide [2]	KD (IIaR)/KD (IIb) [3]	KD (IIaH)/KD (IIb) [4]	Kd [5] [nM]	KD (IIaH)/KD (IIb) [6]	KD (IIaR)/KD (IIb) [7]	other results
IL6R-BP084/IL6R-L (antibody, human IgG1, copies: 2 + 2) heavy: QVQLQESGPGLVKPSETLSLTCAVSGHSISHDHAWSWVRQPPGEGLEWIGFISYSGITNYNPSLQGRVTISRDNSKNTLYLQMNSLRAEDTAVYYCARSLARTTAMDYWGEGTLVTVSSASTKGPSVFPLAPSSKSTSGGTAALGCLVKDYFPEPVTVSWNSGALTSGVHTFPAVLQSSGLYSLSSVVTVPSSSLGTQTYICNVNHKPSNTKVDKKVEPKSCDKTHTCPPCPAPELLGGDSVFLFPPKPKDTLMISRTPEVTCVVVDVSHEDPEVKFNWYVDGVEVHNAKTKPREEQYNSTYRVVSVLTVLHQDWLNGKEYKCKMSNKALPKPIEKTISKAKGQPREPQVYTLPPSRDELTKNQVSLTCLVKGFYPSDIAVEWESNGQPENNYKTTPPVLDSDGSFFLYSKLTVDKSRWQQGNVFSCSVMHEALHNHYTQESLSLSP light: DIQMTQSPSSLSASVGDRVTITCRASQDISSYLNWYQQKPGKAPKLLIYYTSRLHSGVPSRFSGSGSGTDFTFTISSLQPEDIATYYCQQGNTLPYTFGQGTKVEIK	5.1	14.3	47.6				Kd [1]: 2400 nM
IL6R-BP149/IL6R-L (antibody, human IgG1, EU numbering) heavy: QVQLQESGPGLVKPSETLSLTCAVSGHSISHDHAWSWVRQPPGEGLEWIGFISYSGITNYNPSLQGRVTISRDNSKNTLYLQMNSLRAEDTAVYYCARSLARTTAMDYWGEGTLVTVSSASTKGPSVFPLAPSSKSTSGGTAALGCLVKDYFPEPVTVSWNSGALTSGVHTFPAVLQSSGLYSLSSVVTVPSSSLGTQTYICNVNHKPSNTKVDKKVEPKSCDKTHTCPPCPAPDYLGDDSVFLFPPKPKDTLMISRTPEVTCVVVDVSHEDPEVKFNWYVDGVEVHNAKTKPREEQDNSTYRVVSVLTVLHQDWLNGKEYKCKVSNAALPKPIEKTISKAKGQPREPQVYTLPPSRDELTKNQVSLTCLVKGFYPSDIAVEWESNGQPENNYKTTPPVLDSDGSFFLYSKLTVDKSRWQQGNVFSCSVMHEALHNHYTQESLSLSP light: DIQMTQSPSSLSASVGDRVTITCRASQDISSYLNWYQQKPGKAPKLLIYYTSRLHSGVPSRFSGSGSGTDFTFTISSLQPEDIATYYCQQGNTLPYTFGQGTKVEIK				5400	89.9	13	KD(IIb) of the parent polypeptide/KD(IIb) of the altered polypeptide [8]: 53.1
IL6R-BP132/IL6R-L (antibody, human IgG1, copies: 2 + 2) heavy: QVQLQESGPGLVKPSETLSLTCAVSGHSISHDHAWSWVRQPPGEGLEWIGFISYSGITNYNPSLQGRVTISRDNSKNTLYLQMNSLRAEDTAVYYCARSLARTTAMDYWGEGTLVTVSSASTKGPSVFPLAPSSKSTSGGTAALGCLVKDYFPEPVTVSWNSGALTSGVHTFPAVLQSSGLYSLSSVVTVPSSSLGTQTYICNVNHKPSNTKVDKKVEPKSCDKTHTCPPCPAPDLLGGDSVFLFPPKPKDTLMISRTPEVTCVVVDVSHEDPEVKFNWYVDGVEVHNAKTKPREEQYNSTYRVVSVLTVLHQDWLNGKEYKCKVSNAALPKPIEKTISKAKGQPREPQVYTLPPSRDELTKNQVSLTCLVKGFYPSDIAVEWESNGQPENNYKTTPPVLDSDGSFFLYSKLTVDKSRWQQGNVFSCSVMHEALHNHYTQESLSLSP light: DIQMTQSPSSLSASVGDRVTITCRASQDISSYLNWYQQKPGKAPKLLIYYTSRLHSGVPSRFSGSGSGTDFTFTISSLQPEDIATYYCQQGNTLPYTFGQGTKVEIK	6.4	21.5	61.1				Kd [9]: 270 nM
GpH7-B3/GpL16-k0 (antibody, human IgG1, Anti-glypican-3 antibody, human IgG1 constant region B3) heavy: not shown light: DIVMTQSPLSLPVTPGEPASISCQASESLVHSNRNTYLHWYLQKPGQSPQLLIYKVSNRFSGVPDRFSGSGSGTDFTLKISRVEAEDVGVYYCSQNTHVPPTFGQGTKVEIE							relative binding activity (bound amount / bound amount of GpH7-G1d/GpL16-k0 x 100) [13]: 88

Continued, in another order:

KD(IIb) of the parent polypeptide/KD(IIb) of the altered polypeptide [2]	KD (IIaR)/KD (IIb) [3]	KD (IIaH)/KD (IIb) [4]	Kd [5] [nM]	KD (IIaH)/KD (IIb) [6]	KD (IIaR)/KD (IIb) [7]	Binder	other results
			1600	290	18.6	IL6R-BP180/IL6R-L (antibody, human IgG1, EU numbering) heavy: QVQLQESGPGLVKPSETLSLTCAVSGHSISHDHAWSWVRQPPGEGLEWIGFISYSGITNYNPSLQGRVTISRDNSKNTLYLQMNSLRAEDTAVYYCARSLARTTAMDYWGEGTLVTVSSASTKGPSVFPLAPSSKSTSGGTAALGCLVKDYFPEPVTVSWNSGALTSGVHTFPAVLQSSGLYSLSSVVTVPSSSLGTQTYICNVNHKPSNTKVDKKVEPKSCDKTHTCPPCPAPELLGDDSVFLFPPKPKDTLMISRTPEVTCVVVDVSHEDGEVKFNWYVDGVEVHNAKTKPREEQYNSTYRVVSVLTVLHQDWLNGKEYKCKVSNKALPKPIEKTISKAKGQPREPQVYTLPPSRDELTKNQVSLTCLVKGFYPSDIAVEWESNGQPENNYKTTPPVLDSDGSFFLYSKLTVDKSRWQQGNVFSCSVMHEALHNHYTQESLSLSP light: DIQMTQSPSSLSASVGDRVTITCRASQDISSYLNWYQQKPGKAPKLLIYYTSRLHSGVPSRFSGSGSGTDFTFTISSLQPEDIATYYCQQGNTLPYTFGQGTKVEIK	Kd [10]: 96 nM
			1600	191	16.7	IL6R-BP179/IL6R-L (antibody, human IgG1, EU numbering) heavy: QVQLQESGPGLVKPSETLSLTCAVSGHSISHDHAWSWVRQPPGEGLEWIGFISYSGITNYNPSLQGRVTISRDNSKNTLYLQMNSLRAEDTAVYYCARSLARTTAMDYWGEGTLVTVSSASTKGPSVFPLAPSSKSTSGGTAALGCLVKDYFPEPVTVSWNSGALTSGVHTFPAVLQSSGLYSLSSVVTVPSSSLGTQTYICNVNHKPSNTKVDKKVEPKSCDKTHTCPPCPAPELLGDDSVFLFPPKPKDTLMISRTPEVTCVVVDVSHEDGEVKFNWYVDGVEVHNAKTKPREEQYNSTYRVVSVLTVLHQDWLNGKEYKCKVSNAALPKPIEKTISKAKGQPREPQVYTLPPSRDELTKNQVSLTCLVKGFYPSDIAVEWESNGQPENNYKTTPPVLDSDGSFFLYSKLTVDKSRWQQGNVFSCSVMHEALHNHYTQESLSLSP light: DIQMTQSPSSLSASVGDRVTITCRASQDISSYLNWYQQKPGKAPKLLIYYTSRLHSGVPSRFSGSGSGTDFTFTISSLQPEDIATYYCQQGNTLPYTFGQGTKVEIK	Kd [11]: 55000 nM; Kd [12]: 64 nM
